The results in this text go back to patent US20220396635A1 (UNIVERSIT T STUTTGART, published 2022).

Assay [1] has as its target T1, CEA (UniProt P06731 35-685).
T1 sequence (looked up): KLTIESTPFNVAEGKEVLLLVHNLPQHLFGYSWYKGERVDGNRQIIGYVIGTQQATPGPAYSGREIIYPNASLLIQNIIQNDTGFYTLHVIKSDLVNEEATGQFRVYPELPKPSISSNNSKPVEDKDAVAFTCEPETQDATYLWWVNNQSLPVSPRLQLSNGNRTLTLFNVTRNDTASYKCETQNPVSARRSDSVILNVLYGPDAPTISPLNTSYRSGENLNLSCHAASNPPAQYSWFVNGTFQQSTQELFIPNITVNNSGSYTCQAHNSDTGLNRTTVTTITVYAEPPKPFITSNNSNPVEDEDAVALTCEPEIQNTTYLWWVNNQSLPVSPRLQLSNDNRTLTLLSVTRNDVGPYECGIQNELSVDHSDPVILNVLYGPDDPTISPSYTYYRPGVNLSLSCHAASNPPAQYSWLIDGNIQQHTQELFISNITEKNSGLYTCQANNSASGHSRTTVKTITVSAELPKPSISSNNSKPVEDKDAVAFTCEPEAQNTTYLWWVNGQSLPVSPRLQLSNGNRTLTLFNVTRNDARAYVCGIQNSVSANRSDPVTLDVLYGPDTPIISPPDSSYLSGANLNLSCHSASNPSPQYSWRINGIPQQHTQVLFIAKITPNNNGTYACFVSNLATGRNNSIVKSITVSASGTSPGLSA
The assay is described as follows: cell-based or functional assay.

Assay [2] concerns the target T1, CEA. The assay is described as follows: cell-based or functional assay. This is another data set of the same source.
The target of a further assay is T2, CD3 (UniProt P07766 23-207).
T2 construct: whole, on cells; on cells it stands in the TCR/CD3 complex; also called CD3 on Jurkat cells
Put plainly: flow cytometry, serial dilution on Jurkat cells (CD3-expressing), PE anti-human Fc detection. The procedure:
(§1) Binding of trivalent, bispecific fusion proteins to CEA-expressing (LIM1215) and CD3-expressing (Jurkat) cell lines was analyzed by flow cytometry. 2×10⁵ cells/well were incubated with a serial dilution of trivalent, bispecific antibodies for 1 h at 4° C. followed by detection using a PE-conjugated anti-human Fc antibody (Jackson ImmunoResearch Laboratories Inc). […] Regarding the CEA-expressing cell line LIM1215, the trivalent, bispecific antibodies bound with EC₅₀ values in the nanomolar range (FIG. 16A) (Table 9).
(Flow cytometry measures light scatter and fluorescence of single cells or particles in a stream.)

The target of assay [3] is T1, CEA. Put plainly: flow cytometry, serial dilution on LIM1215 cells (CEA-expressing), PE anti-human Fc detection. The protocol: as §1
Another assay has as its target T3, FAP (UniProt Q12884 1-760, limits assumed).
T3 construct: whole, on cells; also called FAP on HT1080-FAP cells
Put plainly: flow cytometry, serial dilution on HT1080-FAP cells (FAP-expressing), PE anti-human Fc detection. The protocol: Binding of trivalent, bispecific fusion proteins to FAP-expressing (HT1080-FAP) cell lines was analyzed by flow cytometry. 2×10⁵ cells/well were incubated with a serial dilution of trivalent, bispecific antibodies for 1 h at 4° C. followed by detection using a PE-conjugated anti-human Fc antibody (Jackson ImmunoResearch Laboratories Inc).

For orientation: EC50 means the midpoint of the concentration-response curve.

B1: scDb/scFv-Fc (1-2)+1, trivalent bispecific anti-CEAxanti-CD3 (bispecific antibody)
chain 1: QVKLQQSGAELVRSGTSVKLSCTASGFNIKDSYMHWLRQGPEQGLEWIGWIDPENGDTEYAPKFQGKATFTTDTSSNTAYLQLSSLTSEDTAVYYCNEGTPTGPYYFDYWGQGTTVTVSSGGGGSDIQMTQSPSSLSASVGDRVTITCRASQDIRNYLNWYQQKPGKAPKLLIYYTSRLHSGVPSRFSGSGSGTDFTFTISSLQPEDIATYYCQQGNTLPWTFGQGTKLEIKRGGGGSGGGGSGGGGSQVQLVQSGAEVKKPGSSVKVSCKASGGTFSGYTMNWVRQAPGQGLEWMGLINPYKGVSTYNGKFKDRVTITADKSTSTAYMELSSLRSEDTAVYYCARSGYYGDSDWYFDVWGQGTLVTVSSGGGGSDIELTQSPAIMSASPGEKVTITCSASSSVSYMHWFQQKPGTSPKLWIYSTSNLASGVPARFSGSGSGTSYSLTISRMEAEDAATYYCQQRSSYPLTFGAGTKLELKRAAADKTHTCPPCPAPPVAGPSVFLFPPKPKDTLMISRTPEVTCVVVDVSHEDPEVKFNWYVDGVEVHNAKTKPREEQYNSTYRVVSVLTVLHQDWLNGKEYKCKVSNKGLPSSIEKTISKAKGQPREPQVCTLPPSRDELTKNQVSLSCAVKGFYPSDIAVEWESNGQPENNYKTTPPVLDSDGSFFLVSKLTVDKSRWQQGNVFSCSVMHEALHNHYTQKSLSLSPGK
chain 2: QVKLQQSGAELVRSGTSVKLSCTASGFNIKDSYMHWLRQGPEQGLEWIGWIDPENGDTEYAPKFQGKATFTTDTSSNTAYLQLSSLTSEDTAVYYCNEGTPTGPYYFDYWGQGTTVTVSSGGGGSGGGGSGGGGSDIELTQSPAIMSASPGEKVTITCSASSSVSYMHWFQQKPGTSPKLWIYSTSNLASGVPARFSGSGSGTSYSLTISRMEAEDAATYYCQQRSSYPLTFGAGTKLELKRAAADKTHTCPPCPAPPVAGPSVFLFPPKPKDTLMISRTPEVTCVVVDVSHEDPEVKFNWYVDGVEVHNAKTKPREEQYNSTYRVVSVLTVLHQDWLNGKEYKCKVSNKGLPSSIEKTISKAKGQPREPQVYTLPPCRDELTKNQVSLWCLVKGFYPSDIAVEWESNGQPENNYKTTPPVLDSDGSFFLYSKLTVDKSRWQQGNVFSCSVMHEALHNHYTQKSLSLSPGK
notes: also called scDbCEAxhuU3-Fc(hole)Δab + scFvCEA-Fc(knob)Δab
Regarding B1, the “EC50 of PBMC cytotoxicity on LIM1215 cells, E:T 10:1” value with CEA [1] turned out to be 0.5 nM. The “EC50 of IL-2 release, PBMCs co-cultured with LIM1215 cells” value in the assay with CEA [2] is 1.4 nM. In addition, the EC50 in the assay with CD3 came out at 7.7 nM; with CEA [3], 1.6 nM.

B2: scDb/Fab-Fc (1-2)+1, trivalent bispecific anti-CEAxanti-CD3 (bispecific antibody, human IgG1, kappa)
chain: QVKLQQSGAELVRSGTSVKLSCTASGFNIKDSYMHWLRQGPEQGLEWIGWIDPENGDTEYAPKFQGKATFTTDTSSNTAYLQLSSLTSEDTAVYYCNEGTPTGPYYFDYWGQGTTVTVSSGGGGSDIQMTQSPSSLSASVGDRVTITCRASQDIRNYLNWYQQKPGKAPKLLIYYTSRLHSGVPSRFSGSGSGTDFTFTISSLQPEDIATYYCQQGNTLPWTFGQGTKLEIKRGGGGSGGGGSGGGGSQVQLVQSGAEVKKPGSSVKVSCKASGGTFSGYTMNWVRQAPGQGLEWMGLINPYKGVSTYNGKFKDRVTITADKSTSTAYMELSSLRSEDTAVYYCARSGYYGDSDWYFDVWGQGTLVTVSSGGGGSDIELTQSPAIMSASPGEKVTITCSASSSVSYMHWFQQKPGTSPKLWIYSTSNLASGVPARFSGSGSGTSYSLTISRMEAEDAATYYCQQRSSYPLTFGAGTKLELKRAAADKTHTCPPCPAPPVAGPSVFLFPPKPKDTLMISRTPEVTCVVVDVSHEDPEVKFNWYVDGVEVHNAKTKPREEQYNSTYRVVSVLTVLHQDWLNGKEYKCKVSNKGLPSSIEKTISKAKGQPREPQVCTLPPSRDELTKNQVSLSCAVKGFYPSDIAVEWESNGQPENNYKTTPPVLDSDGSFFLVSKLTVDKSRWQQGNVFSCSVMHEALHNHYTQKSLSLSPGK
heavy: QVKLQQSGAELVRSGTSVKLSCTASGFNIKDSYMHWLRQGPEQGLEWIGWIDPENGDTEYAPKFQGKATFTTDTSSNTAYLQLSSLTSEDTAVYYCNEGTPTGPYYFDYWGQGTTVTVSSASTKGPSVFPLAPSSKSTSGGTAALGCLVKDYFPEPVTVSWNSGALTSGVHTFPAVLQSSGLYSLSSVVTVPSSSLGTQTYICNVNHKPSNTKVDKKVEPKSCDKTHTCPPCPAPPVAGPSVFLFPPKPKDTLMISRTPEVTCVVVDVSHEDPEVKFNWYVDGVEVHNAKTKPREEQYNSTYRVVSVLTVLHQDWLNGKEYKCKVSNKGLPSSIEKTISKAKGQPREPQVYTLPPCRDELTKNQVSLWCLVKGFYPSDIAVEWESNGQPENNYKTTPPVLDSDGSFFLYSKLTVDKSRWQQGNVFSCSVMHEALHNHYTQKSLSLSPGK
light: DIELTQSPAIMSASPGEKVTITCSASSSVSYMHWFQQKPGTSPKLWIYSTSNLASGVPARFSGSGSGTSYSLTISRMEAEDAATYYCQQRSSYPLTFGAGTKLELKRRTVAAPSVFIFPPSDEQLKSGTASVVCLLNNFYPREAKVQWKVDNALQSGNSQESVTEQDSKDSTYSLSSTLTLSKADYEKHKVYACEVTHQGLSSPVTKSFNRGEC
notes: also called scDbCEAxhuU3-Fc(hole)Δab + VHCEA-CH1-Fc(knob)Δab + VLCEA-CLκ
For B2, the “EC50 of PBMC cytotoxicity on LIM1215 cells, E:T 10:1” value with CEA [1] came out at 0.4 nM. In addition, the “EC50 of IL-2 release, PBMCs co-cultured with LIM1215 cells” value with CEA [2] was found to be 0.5 nM. For the same molecule, the results for the EC50 in the assay with CD3 and in the assay with CEA [3] were 5.7 nM and 2.5 nM, respectively.

B3: scDb/scFv-Fc (1-1)+2, trivalent bispecific anti-FAPxanti-CD3 (bispecific antibody)
chain 1: QVQLVQSGAEVKKPGASVKVSCKASGYTFTENIIHWVRQAPGQGLEWMGWFHPGSGSIKYNEKFKDRVTMTADTSTSTVYMELSSLRSEDTAVYYCARHGGTGRGAMDYWGQGTLVTVSSGGGGSDIQMTQSPSSLSASVGDRVTITCRASKSVSTSAYSYMHWYQQKPGKAPKLLIYLASNLESGVPSRFSGSGSGTDFTLTISSLQPEDFATYYCQHSRELPYTFGQGTKLEIKRGGGGSGGGGSQVQLVQSGAEVKKPGASVKVSCKASGYTFTENIIHWVRQAPGQGLEWMGWFHPGSGSIKYNEKFKDRVTMTADTSTSTVYMELSSLRSEDTAVYYCARHGGTGRGAMDYWGQGTLVTVGGGGSDIQMTQSPSSLSASVGDRVTITCRASKSVSTSAYSYMHWYQQKPGKAPKLLIYLASNLESGVPSRFSGSGSGTDFTLTISSLQPEDFATYYCQHSRELPYTFGQGTKLEIKRAAADKTHTCPPCPAPPVAGPSVFLFPPKPKDTLMISRTPEVTCVVVDVSHEDPEVKFNWYVDGVEVHNAKTKPREEQYNSTYRVVSVLTVLHQDWLNGKEYKCKVSNKGLPSSIEKTISKAKGQPREPQVCTLPPSRDELTKNQVSLSCAVKGFYPSDIAVEWESNGQPENNYKTTPPVLDSDGSFFLVSKLTVDKSRWQQGNVFSCSVMHEALHNHYTQKSLSLSPGK
chain 2: DIQMTQSPSSLSASVGDRVTITCRASQDIRNYLNWYQQKPGKAPKLLIYYTSRLHSGVPSRFSGSGSGTDFTFTISSLQPEDIATYYCQQGNTLPWTFGQGTKLEIKRGGGGSGGGGSGGGGSQVQLVQSGAEVKKPGSSVKVSCKASGGTFSGYTMNWVRQAPGQGLEWMGLINPYKGVSTYNGKFKDRVTITADKSTSTAYMELSSLRSEDTAVYYCARSGYYGDSDWYFDVWGQGTLVTVSSAAADKTHTCPPCPAPPVAGPSVFLFPPKPKDTLMISRTPEVTCVVVDVSHEDPEVKFNWYVDGVEVHNAKTKPREEQYNSTYRVVSVLTVLHQDWLNGKEYKCKVSNKGLPSSIEKTISKAKGQPREPQVYTLPPCRDELTKNQVSLWCLVKGFYPSDIAVEWESNGQPENNYKTTPPVLDSDGSFFLYSKLTVDKSRWQQGNVFSCSVMHEALHNHYTQKSLSLSPGK
notes: also called scDbFAPxFAP-Fc(hole)Δab + scFvhuU3-Fc(knob)Δab
On to B3, for which, in the assay with FAP, the EC50 is 1 nM.
